Assay results: article PMC10786891, “Massively parallel profiling of RNA-targeting CRISPR-Cas13d”
Residue numbers refer to the chain shown, from its start. In names and notes the source's numbering stands.

T1: EsCas13d, nuclease-dead (Eubacterium siraeum, UniProt B0MS50, R295A;H300A;R849A;H854A)
T1 sequence: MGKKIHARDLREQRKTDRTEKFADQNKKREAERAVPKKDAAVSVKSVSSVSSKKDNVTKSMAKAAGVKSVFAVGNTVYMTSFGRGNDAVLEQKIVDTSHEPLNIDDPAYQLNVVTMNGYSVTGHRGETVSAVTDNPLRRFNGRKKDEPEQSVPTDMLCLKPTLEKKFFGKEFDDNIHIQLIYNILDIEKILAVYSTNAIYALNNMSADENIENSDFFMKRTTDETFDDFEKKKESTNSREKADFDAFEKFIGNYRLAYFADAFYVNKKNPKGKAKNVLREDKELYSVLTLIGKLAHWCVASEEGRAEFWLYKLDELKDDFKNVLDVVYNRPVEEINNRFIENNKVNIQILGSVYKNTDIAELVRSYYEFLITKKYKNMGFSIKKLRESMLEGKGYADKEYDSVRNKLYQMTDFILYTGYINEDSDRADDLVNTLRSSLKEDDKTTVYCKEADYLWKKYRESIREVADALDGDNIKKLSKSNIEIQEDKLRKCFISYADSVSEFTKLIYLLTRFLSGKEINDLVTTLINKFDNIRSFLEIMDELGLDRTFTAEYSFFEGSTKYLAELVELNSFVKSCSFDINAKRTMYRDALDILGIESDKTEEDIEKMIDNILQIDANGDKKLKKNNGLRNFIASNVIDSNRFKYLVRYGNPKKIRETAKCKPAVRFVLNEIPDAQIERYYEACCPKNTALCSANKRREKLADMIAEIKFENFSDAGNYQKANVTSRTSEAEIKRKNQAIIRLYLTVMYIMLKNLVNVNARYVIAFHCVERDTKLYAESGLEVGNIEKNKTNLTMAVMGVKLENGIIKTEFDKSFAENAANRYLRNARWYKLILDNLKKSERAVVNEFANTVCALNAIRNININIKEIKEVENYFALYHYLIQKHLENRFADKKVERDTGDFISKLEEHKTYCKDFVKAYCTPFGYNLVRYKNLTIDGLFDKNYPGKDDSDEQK

B1: target 1 insA 3' of 10,insA 3' of 6 (mixed)
RNA 1: CACCCGUGCAAAAAUGCAGGGGUCUAAAACUGAGCGGAUAACCUCUCUAUGG
RNA 2: GGGAAUGGAUCCACAUCUACGAAUUCGUACCAUAGAGAGGUUAAUCCAGCUCACCGAGAUCGGAAGAGCACACGU
B2: target 1 U10G,U11G (mixed)
RNA 1: B1 RNA 1
RNA 2: GGGAAUGGAUCCACAUCUACGAAUUCGUACCAUAGAGAGGGGAUCCGCUCACCGAGAUCGGAAGAGCACACGU
B3: target 3 insU 3' of 9,insC 3' of 8 (mixed)
RNA 1: CACCCGUGCAAAAUUGCAGGGGUCUAAAACGACCUGAAUAUUUCAGAUCAAA
RNA 2: GGGAAUGGAUCCACAUCUACGAAUUCGUUUUUGAUCUGAAAUAUUCUCAGGUCUGCAGAUCGGAAGAGCACACGU
B4: target 3 insC 3' of 22,insU 3' of 6 (mixed)
RNA 1: B3 RNA 1
RNA 2: GGGAAUGGAUCCACAUCUACGAAUUCGUUUCUUGAUCUGAAAUAUUCUAGGUCUGCAGAUCGGAAGAGCACACGU
B5: target 3 insG 3' of 9,insC 3' of 8 (mixed)
RNA 1: B3 RNA 1
RNA 2: B3 RNA 2 with U44G
B6: target 3 del4,del5 (mixed)
RNA 1: B3 RNA 1
RNA 2: GGGAAUGGAUCCACAUCUACGAAUUCGUUUUUGAUCUGAAAUAUUCGUCUGCAGAUCGGAAGAGCACACGU
B7: target 3 U2A,A18G (mixed)
RNA 1: B3 RNA 1
RNA 2: GGGAAUGGAUCCACAUCUACGAAUUCGUUUUUGGUCUGAAAUAUUCAGGACUGCAGAUCGGAAGAGCACACGU
B8: target 3 G4A,A11G (mixed)
RNA 1: B3 RNA 1
RNA 2: B7 RNA 2 with G34A, A41G, G48A, A50U
B9: target 3 insC 3' of 4,insG 3' of 2 (mixed)
RNA 1: B3 RNA 1
RNA 2: B3 RNA 2 with U47A, C48G, A49C, G51U, U52G
B10: target 3 insU 3' of 16,insU 3' of 3 (mixed)
RNA 1: B3 RNA 1
RNA 2: B4 RNA 2 with C31U, U33G, G34A, A35U, U36C, C37U, U48A, A49G, G51U
B11: target 3 insC 3' of 22,insA 3' of 21 (mixed)
RNA 1: B3 RNA 1
RNA 2: GGGAAUGGAUCCACAUCUACGAAUUCGUUUCUAUGAUCUGAAAUAUUCAGGUCUGCAGAUCGGAAGAGCACACGU
B12: target 3 insU 3' of 16,insU 3' of 1 (mixed)
RNA 1: B3 RNA 1
RNA 2: GGGAAUGGAUCCACAUCUACGAAUUCGUUUUUGAUCUUGAAAUAUUCAGGUCUUGCAGAUCGGAAGAGCACACGU
B13: target 3 C1G,A12G (mixed)
RNA 1: B3 RNA 1
RNA 2: B7 RNA 2 with G34A, A40G, A50U, C51G
B14: target 3 C1U,A12C (mixed)
RNA 1: B3 RNA 1
RNA 2: B7 RNA 2 with G34A, A40C, A50U, C51U

Molecular target: T1, EsCas13d, nuclease-dead
Test: crRNA (strand 1, pre-loaded); Mg2+; 40 mM Tris-HCl pH 7.5, 150 mM NaCl, 6 mM MgCl2, 1 mM DTT, 0.1% Tween-20, 0.2 mg/ml BSA; 25 C; 10 min per concentration, then washed
Conditions: tags: His6-TwinStrep-SUMO cleaved; N-terminal SNAP kept (SNAP-Surface 488); label: 3' end held by stalled T7 RNA polymerase

Binder	Kd
B1	11.1 ± 0.7 nM
B2	32.7 ± 2.9 nM
B3	81.5 ± 13 nM
B4	29.6 ± 2.7 nM
B5	90 ± 16.5 nM
B6	24.6 ± 2.15 nM
B7	55.5 ± 7.5 nM
B8	36 ± 5 nM
B9	50.5 ± 9.5 nM
B10	29 ± 5 nM
B11	43 ± 5 nM
B12	39.5 ± 6.5 nM
B13	50 ± 9 nM
B14	86.5 ± 17 nM
